Test results from the supplement of paper PMC12042874.
± gives the uncertainty stated by the source.

Experiment: amyloid nucleation score (Sup35N fusion, yeast selection) (log enrichment); library NNK1; higher = more nucleation; inactive = no reads after selection
How it was run: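 The nucleation score equals the log enrichment of output over input reads from DiMSum, centred on the mode score of non-aggregating sequences. It was computed only for sequences with 100 or more input reads. The reads came from Illumina sequencing of plasmid inserts from psi-negative yeast expressing Sup35N fused to peptides of 20 random codons, induced with 100 μM copper sulfate for 24 hours and grown 7 days at 30°C without adenine and uracil.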

Substance | amyloid nucleation score
ETPNAFHVHMSYVYRLRWSR | 2.75 ± 0.17
RTYSFC | -0.41 ± 0.93
VLISPGFLSVARCLSLDTLF | -0.343 ± 0.33
FIRGDANSLLHYLSDCVRE | 1.37 ± 0.9
RSSSCKWV | -0.53 ± 0.75
WYYDCWIYL | 1.25 ± 0.46
NTMPSGWNRYTVYG | -0.634 ± 0.44
CGGFGMIFYL | 3.03 ± 0.11
CLSYIVVALVRCTDIYYP | 0.763 ± 0.42
SDCRKAFIMSHRSDGNLEFV | 0.382 ± 1.4
LYKKICKALSYIMDLTRVLP | -1.54 ± 2.1
NLILDQVNTYSLCSTIFI | 7.291 ± 0.058
CRTVAHFRP | 0.481 ± 0.61
MWTRHCN | 0.483 ± 0.55
DRATGISEAVEWHGRWVGKN | -0.534 ± 0.83
RMFPCYIAV | 0.015 ± 0.27
CGFSDNGTCKND | -0.059 ± 0.28
LGLGQSGRV | -0.15 ± 0.71
TLRVIAVVDTFSRVYFR | 3.58 ± 0.12
GHRINAYVVVVHLGSSGGGW | 2.07 ± 0.29
VDGSSCFGCAGCTTRRFTSG | -0.253 ± 0.43
PLLYLPNWLISCFYLLF | 0.263 ± 0.53
TYVLTP | -0.454 ± 1.6
AADGGYCRCGNDRKCLYAFR | inactive
FSRYLPKLNSLAKDSIPVGR | inactive
AVRTAFLAAHM | -0.64 ± 0.98
NFRKL | inactive
CLGHLLLTESIPCSFCSYWM | 4.55 ± 0.075
